Measured values taken from article PMC9038204 (PLoS Biology, 2022).

B1: human SNX2 peptide, residues 62-82 (second aDLF motif) (peptide)
peptide: TEVVLDDDREDLFAEATEEVS
notes: sorting nexin-2 (SNX2), human, residues 62 to 82; also called hSNX2 62-82; SNX2_(62-82); source: synthetic peptide (Genscript)
B2: isolated FERM domain of human SNX27 (domain or fragment, UniProt Q96L92 269-531, looked up)
chain: YNGVSDVELRVALPDGTTVTVRVKKNSTTDQVYQAIAAKVGMDSTTVNYFALFEVISHSFVRKLAPNEFPHKLYIQNYTSAVPGTCLTIRKWLFTTEEEILLNDNDLAVTYFFHQAVDDVKKGYIKAEEKSYQLQKLYEQRKMVMYLNMLRTCEGYNEIIFPHCACDSRRKGHVITAISITHFKLHACTEEGQLENQVIAFEWDEMQRWDTDEEGMAFCFEYARGEKKPRWVKIFTPYFNYMHECFERVFCELKWRKENIFQM
notes: FERM domain of human SNX27; pET-28a, TEV site between His-tag and SNX27; also called hSNX27_(FERM); source: E. coli BL21 (DE3), purified (TALON or Ni-NTA, SEC, Mono Q)
B3: GST-mSNX1(1-139) (domain or fragment, mouse, UniProt Q9WV80 1-139, looked up)
chain: MASGGGGCSASERLPPPFPGMDPESEGAAGASEPEAGDSDTEGEDIFTGAAAATKPQSPKKTTSLFPIKNGSKENGIHEDQDQEPQDLFADATVELSLDSTQNNQKTMPGKTLTSHSPQEATNSPKPQPSYEELEEEEQ
notes: mouse SNX1 residues 1 to 139; vector pGEX4T-2, thrombin-cleavable GST; eluted with glutathione and named GST-mSNX1(1-139) in the ITC; also called amino-terminal extension of mouse SNX1; source: E. coli BL21 CodonPlus (DE3), purified (glutathione Sepharose, SEC); not shown: GST, N-terminal, kept
B4: human SNX1 peptide, residues 75-92 (second aDLF motif) (peptide)
peptide: NGIHEEQDQEPQDLFADA
notes: sorting nexin-1 (SNX1), human, residues 75 to 92; also called hSNX1 75-92; SNX1_(75-92); source: synthetic peptide (Genscript)
B5: SNX2_(16-33) peptide (peptide)
peptide: TDFEDLEDGEDLFTSTVS
notes: human SNX2 residues 16 to 33; also called first aDLF motif of SNX2; source: synthetic peptide (Genscript)
B6: SNX1_(75-92) peptide (peptide)
peptide: NGIHEEQDQEPQDLFADA
notes: human SNX1 residues 75 to 92; also called second aDLF motif of human SNX1; source: synthetic peptide (Genscript)
B7: SNX1_(35-51) peptide (peptide)
peptide: EAGDSDTEGEDIFTGAA
notes: human SNX1 residues 35 to 51; also called first aDLF motif of human SNX1; source: synthetic peptide (Genscript)
B8: SNX2_(62-82) peptide (peptide)
peptide: TEVVLDDDREDLFAEATEEVS
notes: human SNX2 residues 62 to 82; also called second aDLF motif of SNX2; source: synthetic peptide (Genscript)
B9: human SNX1 peptide, residues 35-51 (first aDLF motif) (peptide)
peptide: EAGDSDTEGEDIFTGAA
notes: sorting nexin-1 (SNX1), human, residues 35 to 51; also called hSNX1 35-51; SNX1_(35-51); source: synthetic peptide (Genscript)

Legend:
Settings in all cases: both partners purified
full-length mouse SNX27 [1] = target: T1, full-length mouse SNX27 (mouse, UniProt Q3UHD6 1-539); experiment: ITC; 800 μM hSNX1 or hSNX2 peptide (syringe) titrated into 20 μM mSNX27FL (cell); 25°C; 50 mM HEPES pH 7.5, 200 mM NaCl, 5% glycerol, 1 mM β-ME with 1:10 peptide buffer (100 mM Tris-HCl pH 10.6); single-site model
T1 construct: sorting nexin-27 (SNX27), mouse, full length; pMCSG7 vector by ligation-independent cloning; also called mSNX27FL

[2] = target: T2, full-length mouse SNX1 with an amino-terminal His-tag (mouse, UniProt Q9WV80 1-522); experiment: ITC; 800 μM hSNX27 FERM titrated into 20 μM GST-mSNX1(1-139) or His-SNX1FL; 25°C; 50 mM HEPES pH 7.5, 200 mM NaCl, 5% glycerol, 1 mM β-ME; single-site model
T2 construct: sorting nexin-1 (SNX1), mouse; vector pMW172Kan; also called mSNX1FL; His-SNX1FL; source: E. coli BL21 CodonPlus (DE3), purified (TALON or Ni-NTA, SEC); not shown: His-tag, N-terminal, kept

[3] = target: B2; experiment: as above
[4] = target: T3, full-length human SNX27, wild type (human, UniProt Q96L92 1-541); experiment: ITC; 600 μM hSNX1(75-92) peptide (syringe) titrated into 20 μM hSNX27FL wild type or single-site mutant (cell); 25°C; 50 mM HEPES pH 7.5, 200 mM NaCl, 5% glycerol, 1 mM β-ME; single-site model
T3 construct: sorting nexin-27 (SNX27), human, full length; also called hSNX27FL; hSNX27 WT

full-length mouse SNX27 [5] = target: T4, full-length mouse SNX27 (mouse, UniProt Q3UHD6 1-539); experiment: ITC; 800 μM SNX1 or SNX2 peptide titrated into 20 μM mSNX27FL; 25°C; 50 mM HEPES pH 7.5, 200 mM NaCl, 5% glycerol, 1 mM β-ME with 1:10 peptide buffer (100 mM Tris-HCl pH 10.6); single-site model
T4 construct: sorting nexin-27 (SNX27), mouse; also called mSNX27FL

[6] = target: T5, full-length human SNX27, wild-type (human, UniProt Q96L92 1-541); experiment: ITC; 600 μM SNX1 75-92 peptide titrated into 20 μM hSNX27 wild-type or single-site mutant; 25°C; 50 mM HEPES pH 7.5, 200 mM NaCl, 5% glycerol, 1 mM β-ME; single-site model
T5 construct: sorting nexin-27 (SNX27), human; pET-28a, TEV site between His-tag and SNX27; also called hSNX27FL; hSNX27 WT; source: E. coli BL21 (DE3), purified (TALON or Ni-NTA, SEC)

human SNX27 K496D = target: T6, human SNX27 K496D (human, UniProt Q96L92 1-541, K496D); experiment: as above
T6 construct: human SNX27 single-site mutant; printed as R496D in the text and as K496D in the legend and the methods; also called hSNX27 K496D; SNX27(R496D); source: E. coli BL21 (DE3), purified (TALON or Ni-NTA, SEC)

| Kd (full-length mouse SNX27 [1]) [µM] | Kd (full-length mouse SNX27 [5]) [µM] | Binder | further results |
| --- | --- | --- | --- |
| 22.6 ± 1.89 | – | B1 | – |
| – | – | B2 | Kd [2]: 41 µM |
| – | – | B3 | Kd [3]: 39.1 µM |
| 13.4 ± 0.75 | – | B4 | Kd [4]: 12.8 ± 0.47 µM |
| – | 37.8 | B5 | – |
| – | 13.3 | B6 | Kd [6]: 12.7 µM; Kd (human SNX27 K496D): 56.4 µM |
| – | 33.4 | B7 | – |
| – | 22.6 | B8 | – |
| 33.4 ± 1.89 | – | B9 | – |
